Results reported in doi:10.1101/871988.

Biological target: recombinant human scavenger receptor B1 (SRB1) (human) (UniProt Q8WTV0)
Test: SPR

Chain of UniProt Q8WTV0 (Q8WTV0 whole entry): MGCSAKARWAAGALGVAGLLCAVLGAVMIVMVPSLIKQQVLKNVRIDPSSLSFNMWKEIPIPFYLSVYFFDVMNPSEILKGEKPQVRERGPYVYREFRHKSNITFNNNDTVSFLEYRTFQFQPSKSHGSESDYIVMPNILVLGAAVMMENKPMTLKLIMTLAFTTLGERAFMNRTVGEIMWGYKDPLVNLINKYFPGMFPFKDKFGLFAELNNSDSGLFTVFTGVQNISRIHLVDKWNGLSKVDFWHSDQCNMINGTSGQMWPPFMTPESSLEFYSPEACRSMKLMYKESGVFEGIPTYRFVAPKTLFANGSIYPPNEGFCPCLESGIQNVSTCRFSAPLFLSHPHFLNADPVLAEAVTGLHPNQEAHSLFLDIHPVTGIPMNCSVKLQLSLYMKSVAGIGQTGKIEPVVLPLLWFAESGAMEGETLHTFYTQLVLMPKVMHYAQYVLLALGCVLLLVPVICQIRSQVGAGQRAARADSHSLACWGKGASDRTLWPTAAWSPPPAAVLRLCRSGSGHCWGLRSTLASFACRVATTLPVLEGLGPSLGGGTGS

| Substance | Kd |
| --- | --- |
| human high density lipoprotein (HDL) (from UniProt P02647 19-267) (complex) | 18.7 nM |
| recombinant dengue virus non-structural protein 1 (DENV NS1) (natural protein) | 47 nM |
